Biological target: biotinylated TGPAvi (Galaxea fascicularis (engineered …, biotin on the Avi-tag (enzymatic biotinylation with BirA)))
Assay: BLI

- Kd: 26 nM
- koff: 0.014 s⁻¹
- kon: 530000 M⁻¹ s⁻¹
B1: Sb32 (VHH)
VHH: QVQLVESGGGLVQAGGSLRLSCAASGFPVGQQKMTWYRQAPGKEREWVAAITSAGWFTHYADSVKGRFTISRDNAKNTVYLQMNSLKPEDTAVYYCTVKVGAEYAGQGTQVTVSA

Reference: doi:10.64898/2025.12.23.696179 (bioRxiv, 2025)
